Source: patent publication US20220220215A1 (CRESCENDO BIOLOGICS, published 2022)

Experiments:
[1] = molecular target: T1, Rhesus CD137-Fc tagged protein (rhesus, UniProt H9Z8K9 24-186); test: BLI (Octet RED384), CD137-Fc on Protein G sensor, 1:1 model
T1 construct: extracellular domain; The Octet paragraph gives no catalogue number; also called rhCD137-Fc

[2] = molecular target: human CD40 (R&D Systems cat no. CDO-H5253) (human, UniProt P25942 21-193, limits assumed); test: ELISA, plate-coated human CD40; legend: No binding (-)
Protocol: (§1) Specificity of binding for CD137 over the tumour necrosis factor receptor family members OX40, GITR (Glucocorticoid-induced TNFR-related), CD40 and HVEM was determined using an ELISA assay. Nunc Maxisorp plates were coated with 1 ug/ml human CD137-Fc recombinant protein (Acro Biosystems 41B-H5258), human GITR-Fc (R&D Systems cat no. 689-GR) human OX40-Fc (R&D Systems cat no. 3388-OX), human CD40 (R&D Systems cat no. CDO-H5253), human HVEM (R&D Systems cat no. HVM-H5258) in PBS overnight at 4° C. then washed twice with PBS. Non-specific protein interactions were blocked by incubation with 1% (w/v) skimmed milk powder (Marvel®) in PBS/0.1% Tween-20 for 1 hour at room temperature. Plates were washed twice with PBS then VH or antibody control (1 ug/ml) added for 1 hour at room temperature. Following three washes with PBS/0.1% Tween-20 a 1:1000 dilution of anti His-HRP (VH detection) or anti mouse-HRP (positive control mouse monoclonal antibody detection) was added in 1% Marvel/PBS/0.1% Tween-20. The detection antibodies were allowed to bind for 1 hour at room temperature then the plates were washed twice in PBS/0.1% Tween-20 and once in PBS. The ELISA was developed using TMB substrate and the reaction was stopped by the addition of 50 ul 0.5M H₂SO₄ solution. The absorbance at 450 nm was measured using the BMG Pherastar.

[3] = molecular target: T2, human OX40-Fc (R&D Systems cat no. 3388-OX) (human, UniProt P43489 29-216, limits assumed); test: ELISA, plate-coated human OX40-Fc; legend: No binding (-)
T2 sequence (looked up): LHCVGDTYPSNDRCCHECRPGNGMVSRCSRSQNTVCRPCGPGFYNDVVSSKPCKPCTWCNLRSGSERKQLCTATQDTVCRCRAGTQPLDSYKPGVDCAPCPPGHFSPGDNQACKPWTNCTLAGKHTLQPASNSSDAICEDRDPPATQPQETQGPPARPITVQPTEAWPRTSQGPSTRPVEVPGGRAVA
Protocol: as §1

[4] = molecular target: T3, human CD137 expressed on CHO cells (human, UniProt Q07011 18-255); test: FMAT/Mirrorball on CHO huCD137 cells
T3 construct: also called CHO huCD137; CHO human CD137 cells
Outline: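 His-tagged VH molecules bound to CHO cells expressing human PD-1 or human CD137, with CHO parent cells as control, in PBS pH 7.4, 0.1% BSA, 0.05% sodium azide. Read by FMAT on Mirrorball (ex 488/640 nm); binding taken as FL2 median fluorescence intensity of FL5-gated events.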

[5] = molecular target: T4, human GITR-Fc (R&D Systems cat no. 689-GR) (human, UniProt Q9Y5U5 26-161); test: ELISA, plate-coated human GITR-Fc; legend: No binding (-)
T4 construct: also called Glucocorticoid-induced TNFR-related
T4 sequence (looked up): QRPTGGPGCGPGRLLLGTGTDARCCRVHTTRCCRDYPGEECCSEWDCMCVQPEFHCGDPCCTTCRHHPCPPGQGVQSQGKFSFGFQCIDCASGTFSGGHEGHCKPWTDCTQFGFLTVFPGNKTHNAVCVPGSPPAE
Protocol: as §1

[6] = molecular target: T5, human HVEM (R&D Systems cat no. HVM-H5258) (human, UniProt Q92956 39-202, limits assumed); test: ELISA, plate-coated human HVEM; legend: No binding (-)
T5 sequence (looked up): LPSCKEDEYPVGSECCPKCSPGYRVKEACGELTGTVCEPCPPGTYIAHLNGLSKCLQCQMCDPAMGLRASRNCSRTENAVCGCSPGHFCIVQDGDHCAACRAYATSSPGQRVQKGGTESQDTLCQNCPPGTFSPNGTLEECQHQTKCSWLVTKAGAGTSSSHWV
Protocol: as §1

[7] = molecular target: T6, human GITR-Fc (R&D Systems cat no. 689-GR) (human, UniProt Q9Y5U5 26-161); test: ELISA, plate coated with 1 ug/ml recombinant protein, anti His-HRP detection
T6 construct: Bought protein; also called Glucocorticoid-induced TNFR-related
T6 sequence (looked up): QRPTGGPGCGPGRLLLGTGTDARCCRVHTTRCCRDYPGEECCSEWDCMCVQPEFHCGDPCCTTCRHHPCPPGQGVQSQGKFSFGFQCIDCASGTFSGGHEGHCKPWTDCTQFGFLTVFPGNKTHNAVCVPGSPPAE
Protocol: as §1

[8] = molecular target: T7, human CD40 (R&D Systems cat no. CDO-H5253) (human, UniProt P25942 21-193, limits assumed); test: as above
T7 construct: Bought protein
Protocol: as §1

[9] = molecular target: T8, human OX40-Fc (R&D Systems cat no. 3388-OX) (human, UniProt P43489 29-216); test: as above
T8 construct: Bought protein
T8 sequence (looked up): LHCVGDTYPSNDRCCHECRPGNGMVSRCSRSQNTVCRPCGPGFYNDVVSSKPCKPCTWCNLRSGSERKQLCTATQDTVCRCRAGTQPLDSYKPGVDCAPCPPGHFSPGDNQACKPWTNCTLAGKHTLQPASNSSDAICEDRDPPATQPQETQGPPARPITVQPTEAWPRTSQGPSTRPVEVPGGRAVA
Protocol: as §1

[10] = molecular target: T9, human HVEM (R&D Systems cat no. HVM-H5258) (human, UniProt Q92956 39-202, limits assumed); test: as above
T9 construct: Bought protein
T9 sequence (looked up): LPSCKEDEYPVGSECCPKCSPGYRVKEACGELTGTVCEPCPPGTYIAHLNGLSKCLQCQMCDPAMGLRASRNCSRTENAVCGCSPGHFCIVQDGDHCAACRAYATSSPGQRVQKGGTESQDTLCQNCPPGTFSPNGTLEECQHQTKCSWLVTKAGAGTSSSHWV
Protocol: as §1

[11] = molecular target: T10, full-length rhesus CD137 (Sino Biologics 90847-K02H), huFc tag (rhesus, UniProt F6W5G6 24-186); test: BLI (ForteBio Octet RED 384), CD137-Fc on Protein G biosensors, 1:1 model
T10 construct: Bought protein; also called rhCD137-Fc; Rhesus CD137-Fc tagged protein; not shown: human Fc tag (huFc) and any linker to it
Protocol: Binding kinetics of purified monovalent VH molecules were measured on a ForteBio Octet RED 384 instrument. Human and Rhesus CD137-Fc tagged protein was diluted to 5 μg/ml in kinetics buffer (0.05% Tween, 1×PBS) and coupled to Protein G biosensors (ForteBio cat no. 18-5082) via the Fc tag. VH were serially diluted (typically 1:2 dilution series starting with 200 nM, VH at the highest concentration) and binding to the CD137-Fc-coupled Protein G biosensors measured. Binding kinetics were determined from the (blank subtracted) sensor gram trace using 1:1 binding models and ForteBio Octet Data Analysis 9.0 software. Example kinetic and binding affinity data obtained is shown Table 18 (monovalent VH).

[12] = molecular target: T11, human CD137 expressed on cells (Jurkat human CD137 NF-kB luciferase reporter cells; human CD8+ T cells) (human, UniProt Q07011 24-255); test: cell-based or functional assay
[13] = molecular target: T11, human CD137 expressed on cells (Jurkat …); test: cell-based or functional assay; remark: listed apart in the source
[14] = molecular target: T12, recombinant Fc-tagged ectodomain of human PD1 (Acro Biosystems PD1-H5257) (human, UniProt Q15116 25-170); test: SPR, Biacore 8K, single-cycle kinetics; Fc-tagged ectodomain captured on Protein G chip; 1:1 model
T12 construct: Bought protein; not shown: Fc tag
Outline: (§2)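 Single-cycle kinetics: Humabody VH constructs injected 90 s at low to high nanomolar concentrations over captured Fc-tagged ectodomains. Surface regenerated with 10 mM glycine pH 1.5. Kinetics fitted to a 1:1 binding model, including two-PD-1-arm constructs.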

[15] = molecular target: T13, recombinant Fc-tagged ectodomain of cynomolgus PD1 (Acro Biosystems PD1-C5254) (cynomolgus macaque, UniProt B0LAJ3 25-170); test: as above
T13 construct: Bought protein; also called Cyno PD1; cynomolgus macaque PD1; not shown: Fc tag and any linker to it
Outline: as §2

[16] = molecular target: T14, recombinant Fc-tagged ectodomain of human CD137 (Acro Biosystems 41B-H5258) (human, UniProt Q07011 24-186); test: as above
T14 construct: Bought protein; not shown: Fc tag
Outline: as §2

[17] = molecular target: T15, recombinant Fc-tagged ectodomain of cynomolgus CD137 (R&D S9324-4b) (cynomolgus macaque, UniProt A9YYE7 24-186); test: as above
T15 construct: Bought protein; also called Cyno CD137; cynomolgus macaque CD137; not shown: Fc tag and any linker to it
Outline: as §2

B1: 003BB172-E01 (VHH)
VHH: EVQLVESGGGLVQPGGSLRLSCAASGFTFSNYGMHWVRQAPGKRLEWVAVISNDGNTKTYADSVKGRFTISRDNSKNMLYLQMTSLRTEDTAVYYCAQDETTTVTASYYFDYWGQGTLVTVSS
notes: also called 003BB1172-E01
- Kd [1]: 27.5 nM
- koff [1]: 0.00131 s⁻¹
- kon [1]: 47800 M⁻¹ s⁻¹
- binding result [2]: no binding (tested: 1 ug/ml)
- binding result [3]: no binding (tested: 1 ug/ml)
- EC50 [4]: 1.73 nM
- binding result [5]: no binding (tested: 1 ug/ml)
- binding result [6]: no binding (tested: 1 ug/ml)

B2: 003BB172-E01 (VHH)
VH: EVQLVESGGGLVQPGGSLRLSCAASGFTFSNYGMHWVRQAPGKRLEWVAVISNDGNTKTYADSVKGRFTISRDNSKNMLYLQMTSLRTEDTAVYYCAQDETTTVTASYYFDYWGQGTLVTVSS
notes: Human VH single domain antibody (Humabody), monovalent, His-tagged in the assays; also called 003BB1172-E01; not shown: C-terminal 6xHIS tag
- binding result [7]: no binding (tested: 1 ug/ml)
- binding result [8]: no binding (tested: 1 ug/ml)
- binding result [9]: no binding (tested: 1 ug/ml)
- binding result [10]: no binding (tested: 1 ug/ml)

B3: 003BB172-E01-14 (VHH)
VH: EVQLVESGGGVVQPGRSLRLSCAASGFTFSNYGMHWVRQAPGKGLEWVAVISNDGNTKTYADSVKGRFTISRDNSKNTLYLQMNSLRAEDTAVYYCAQDETTTVTASYYFDYWGQGTLVTVSS
notes: Human VH single domain antibody, His-tagged in the assays; not shown: C-terminal 6xHIS tag
- binding result [7]: no binding (tested: 1 ug/ml)
- binding result [8]: no binding (tested: 1 ug/ml)
- binding result [9]: no binding (tested: 1 ug/ml)
- binding result [10]: no binding (tested: 1 ug/ml)

B4: 003BB172-E01-5 (VHH)
VH: EVQLVESGGGLVQPGGSLRLSCAASGFTFSNYGMHWVRQAPGKRLEWVAVISNDGNTKTYADSVKGRFTISRDNSKNTLYLQMNSLRTEDTAVYYCAQDETTTVTASYYFDYWGQGTLVTVSS
notes: as for B3
- Kd [11]: 11.5 nM

B5: 003BB172-E01-8 (VHH)
VHH: EVQLVESGGGVVQPGGSLRLSCAASGFTFSNYGMHWVRQAPGKGLEWVAVISNDGNTKTYADSVKGRFTISRDNSKNTLYLQMNSLRTEDTAVYYCAQDETTTVTASYYFDYWGQGTLVTVSS
notes: as for B3
- Kd [11]: 41.4 nM

B6: 003BB172-E01-14 (VHH)
VHH: EVQLVESGGGVVQPGRSLRLSCAASGFTFSNYGMHWVRQAPGKGLEWVAVISNDGNTKTYADSVKGRFTISRDNSKNTLYLQMNSLRAEDTAVYYCAQDETTTVTASYYFDYWGQGTLVTVSS
notes: Human VH single domain antibody, monovalent
- Kd [1]: 25.9 nM
- koff [1]: 0.00159 s⁻¹
- kon [1]: 61300 M⁻¹ s⁻¹
- binding result [2]: no binding (tested: 1 ug/ml)
- binding result [3]: no binding (tested: 1 ug/ml)
- EC50 [4]: 1.29 nM
- binding result [5]: no binding (tested: 1 ug/ml)
- binding result [6]: no binding (tested: 1 ug/ml)

B7: TPP-1293 (PDBlocker1.92-6GS-CD137A-6GS-HSA2) (bispecific antibody)
chain: EVQLVESGGGLVKPGGSLRLSCAASGFTFSDESMTWMRQAPGKGLEWVSYISSGGGVKFYADSVKGRFTISRDNAKNSLYLQMNSLRAEDTAVYYCAREAPLRLGESPHDAFDISGQGTMVTVSSGGGGSGGGGSGGGGSGGGGSGGGGSGGGGSEVQLVESGGGLVQPGGSLRLSCAASGFTLSNYWMNWVRQAPGKGLEWVANINQDGSERYYVDSVKGRFTISRDNAKNSLYLQMNSLRAEDTAVYYCARGGEGYGVDHYGLDVSGQGTTVTVSSGGGGSGGGGSGGGGSGGGGSGGGGSGGGGSEVQLVESGGGLVKPGGSLRLSCAASGFTFSNYNMNWVRQAPGKGLEWVSSISSAGTHIYYADSVKGRFTISRDNAKNSLYLQMNSLRAEDTAVYYCARDPHSTGWYKDFDYWGQGTLVTVSS
notes: The chain is therefore built from the parts named in the composition
- Jurkat-CD137/CHO-PD-1 Reporter Assay EC50 [12]: 11.3 pM
- CD8+ T-cell activation assay - IL-2 release, EC50 [13]: 146 pM
- Kd [14]: 2.31 nM
- koff [14]: 0.000212 s⁻¹
- kon [14]: 91500 M⁻¹ s⁻¹
- Kd [15]: 3.41 nM
- koff [15]: 0.000407 s⁻¹
- kon [15]: 119000 M⁻¹ s⁻¹
- Kd [16]: 2.57 nM
- koff [16]: 0.000151 s⁻¹
- kon [16]: 58600 M⁻¹ s⁻¹
- Kd [17]: 4.34 nM
- koff [17]: 0.000226 s⁻¹
- kon [17]: 52200 M⁻¹ s⁻¹
